Laboratory results published in the nanobody polyreactivity screen of Harvey et al. (2022).

experiment: yeast display, Sf9 membrane polyspecificity reagent, FACS + sequencing; frameworks hold sequencing errors
How it was run: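 Polyreactivity labels are assigned by the sorting gate from which each nanobody was recovered. The gates were low and high (top ~1%), set on anti-HA fluorescence for expression and streptavidin fluorescence for reagent binding. Before sorting, galactose-induced (36–48 hours) yeast display cells were stained for 1 hour at 4 °C with 10% biotinylated, detergent-solubilized Sf9 membrane reagent.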

Sequence	polyreactivity (PSR sort gate)
QVQHVESGGGLVQEGGSLRLSCAASGRIFRTNAMVWYRQAPGKERELVAAITRDGTTNYADSVKGRFTISRDNAKNTVYLQMNSLIPEDTAVYYCNARYRRSPIKFTYVRYVYEYDYWGQGTQVTVSS	low polyreactivity
QVQLVESGGGIVQAGGSLRLSCAASGIIFRYYAMGWYRQAPGNERELVAVITGRGGGTYYADSVKGRFTISRDNAKNTVYLQMNSLKPEDTAVYYCAKDFTGHYPKGFDYWGQGTQLTVSS	low polyreactivity
QVQLVESGGGLVQAGGSLRLSCAASGRTFVVYAMGWYRQAPGKERELVAAISYSGGSTYYADSVKGRFTISRDNAKNTVYLQMNSLKPEDTAVYYCAAVHLGYYHIYGLGYWGQGTQVTVSS	high polyreactivity
QVQLVESGGGLVQAGGSLRLSCAASGRTFGYYAMGWYRQAPGKERELVAAISWRGTSTYYADSVKGRFTISRDNAKNTVYLQMNSLKPEDTAVYYCAVGRTVAHRFIAGDYWGQGTQVTVSS	high polyreactivity
QVQLVESGGGLGQAAGSLRLSCAASGHIFGPYAMGWYSQAPGKERELVAAITSGGTTYYADSVKGRFTISRDNAKNTVYLQMNSLKPEDTAVYYCAAKFELTRYSSPFFWYDSWGQGTKVTVSS	high polyreactivity
QVQLVESGGGLVQAGGSLRLSCAASGGTLYYNAMGWYRQAPGKERELVAAISGRGGRTYYADSVKGRFTISRDNAKNTVYLQMNSLKPEDTAVYYFARVTNDHYDYWGQGTQVTVSS	high polyreactivity
QVQLVESGGGLDQAGGSLRLSCAASGRIFPFNAMGWYRQAAGKERELVASIRSTGGNTYYADSVKGRFTISRDNAKNTVYLQMISLIPEDSAVYYWGQGTQVTVSS	low polyreactivity
QVQLVESGGGLVQAGGSLRLSCAASGSIFSRNTMGWYRQAPGKERELVAGISSSGSRTYYADSVKGRFTISRDNPKNTVYLQMNSLKPEDTAVYYCAAEHQRSRGRRYYIGYDYWGQGTQVTVSS	low polyreactivity
QVQLVESGGGLVQAGGSLRLSCAASGGTFPQNVMGWYRPAPGKERELVAAISSGGSTYYADSVKVRFTISRDNAKNTVYFQMNSLIPEDTGVYYCAKRRWYRYDYWGQGTQVTVSS	high polyreactivity
QVQLVESGGGLVQAGGSLRLSCAASGITFSRNVMGWYRQAPGKERELVAAISRSGGRTYYADSVKGRFTISRDTAKNTVYLQINSLKAEDTAVYYCNRDIGGTSVLDDYWGQGTQVTVSS	low polyreactivity
QVQLVESGGGLVQAGGSLRLSCAASGSILDWNAMGWYRQAPGKVRELDAAITNGVSTHYADSVKGRFTISRDNAKNTVYFQMNSLKPEETAVYYCAKAFWWRPEWWLRSARGSWGQGTQVTVSS	low polyreactivity
QVQLVESGGGLVQAGGSLRLSCAASGIIFKIYAMGWYRQAPGKERELVAAISKRGASTYYADSVKGRFTISRDNAKNTVYLQMNSLKPEDTAVYYCAAYRQGSAYDYWGQGTQVTVSS	high polyreactivity
QVQLVESGGGLVQAGGSLRLICAASGIIFYYAMGWYRQAPGKEREFVASIRWSGDSTYYADSVKGRFTISRDNAKNTVYLQMNSLKPEDTAVYYCAAEPDSAVSYVSWRDYWGQGTQVTVSS	low polyreactivity
QVQLVESGGRLVQAGGSLRLSCAASGRIFVRYAMGWYRQAPGKERELVAAISTRGGSTYYADSVKGRFTISRDNAKNTVYLQMNSLNPEDTAVYYCAAGPRPRPTDYWGQGTQVTVSS	high polyreactivity
QVQLVESGGGLVQAGGSLRLSCAASGSIFVAYAMGWYRQAPGKERELVAAITYSAGSTYYADSVKGRFTISRDNAKNTVYLQMNSLKPEDTAVYYCAADTYTYFLASYLYGQYDYWGQGTQVTVSS	low polyreactivity
QVQLVESGGGLVQAGGSLRLSCAASGIIFRLYAMGWYRQAPGKERELVAAITSRGGSTYYADSVKGRFTISRDNAKKTVYLQMNSLKPEDTAVYYCAARPVYSGYDYWGQGTQVTVSS	high polyreactivity
QVQLVESGGGLVQAGGSLRLSCAASGRTFSVNAMGWYRPAPGKERELVAAISWSTGSTYYADSVKGRFTISRDNAKNTVYLQMNSLKPEDTAVYYCAKLYEYRRSRYRTYGYWGQGTQVTVSS	high polyreactivity
QDQLVESGGGLVQAGGSLRLSCAASGFTFYTNVMGWYRQAPGKERELVAAINSGGSTNYADSVKGRFTISRDNAKNTVYLQMNSMKPEDTAVYYCNKSGTEIGYDYWGQGTQVTVLS	low polyreactivity
QVQLVESGGGLVQAGGSLRLSCAASGRIFLLNAMGWYRQAPGKERELVADISFNGGSKYYADSVKGRFTISRDNAKNTVYLQMNSLKPEDTAVYYCNADAHNLWFRYYYWGQGTQVTVSS	low polyreactivity
QDQLVESGGGLVQAGGSLRLSCAASARIFPHYPMGWYRQAPGKERELVATITSGGRTNYADSVKGRFTISRDNAKNTVYLQMNSLKPEDTAVYYCAVDTWGSSWYDLFRETSDYWGHGTQVTVSS	low polyreactivity
QVQLVESGGGLDQAGGSLRLTCAASGRIISGNAMGWYRQAPGKERELVAAISWSGGSTYYADSVKWRFTISRDNEKNTVYLHMNSLQPEDSAVYYCNAPGYRRYGSRMGYCGQGTQVTVSS	high polyreactivity
QVQLVESGGGLVQAGGSLRLSCAASGSIFYLYAMGWYRQAPGKERELVAAITSGDSTTYADSVKGRFTISRDNAKNTVYLQMNSLKPEDTAVYYCAADWPGLVGYHNSAENDYWGQGTQVTVSS	low polyreactivity
QVQLVESGGGLVQAGGSLRLSCAASGNTFPVYAMGWYRQASGKERELVATITSGGSTNYADSVKGRFTISRDNAKNTVYLQMNSLKPEDTAVYDCARRAVYAKRRYDYWGQGTQVTVSS	low polyreactivity
QVQIVESGGGLVQAGGRLRLSCAASGGIFKTYPMGWYRQAPGKERELVARINSRGGRTYYADSVKGRFTISRDYAKKTVYLQMNSLKPEATAVYYCAVRNPRYFNEYDYWGQGTQVTVSS	low polyreactivity
QVQLVESGGGLVQAGGSLRLSCAASGFIFWYYALGWYRQAPGKERELVAAISARDGSTYYADSVKGRFTISRDNAKNTVYLQMNSLKPEDTAVYYCNAVQRYPKFRMDYWGQGTQVTVSS	low polyreactivity
QVQLVESGGGLVQAGGSLRLSCAASGSIFIYYAMGWYRQAPGKERELVAAINTGGTTYYADSVKGRFTISRDNAKNTVYLQMNSLKPEDTAVYYCAKYIAYYGYVPSPWDHPGDDYWGQGTQVTVSS	low polyreactivity
QDQLVESVGGLVQAGGSLRLSCAASGSIFNRYVMGCYSQAPGKERELVAAMSRRGGNTYYADSVKGRFTISRDNAKNTVYLQMNSLKPEATAVYYCAADYSYYYGYDYWGQGTQVTVSS	high polyreactivity
QVQLVESGGGLVKAGGTLSLSCAASGFIFGFNAMGWYRQAPGKERELVADITSSGGSTYYADSVKGRFTISRDNAKNTVYLQMNSLKPEDTAVYYCAADGWWHNFYPGTGLDYWGQGTQVSVSS	low polyreactivity
QVQLVESGGGLIQAGGSLRLSCAASGSNFRYYALGWYRQAPGKESELVAAISQSGGSTHYAESVKGRFTISRDNAKITVYLQMNSLKAEDTAVYYCAKHWGPGTQVTVSS	low polyreactivity
QVQLVETGGGLVQAGGSLRISCAASGLTFYLYAMGWYRQSPGKERELVAAISSTGITNYADSVKGRFTISRDNAKNTVYLQMNSLNPEDTAVYYCNADYHPFFFEFNDWGQGTQVTVSS	high polyreactivity
